According to patent US20230265151A1, “GIP/GLP1 CO-AGONIST COMPOUNDS” (priority 2020, published 2023):
*1 amine or outer side, *2 acyl side, *3 side chain or, on linkers, in order; H or OH if unused. Where no end group is shown, it is not given here. Side-chain parts run from the residue outwards. [ ]: non-standard residue; d: D form. The star is where a group is joined. αMePhe(2-F) = C[C@](N)(Cc1ccccc1F)C(=O)O; γGlu = O=C(O)[C@H](CCC(=O)[*:2])N[*:1]; C14 diacid = O=C(O)CCCCCCCCCCCCC(=O)*; αMeY = C[C@](N)(Cc1ccc(O)cc1)C(=O)O; αMeL = CC(C)C[C@](C)(N)C(=O)O; Orn = NCCC[C@H](N)C(=O)O; AEEA = NCCOCCOCC(=O)O; Aib = CC(C)(N)C(=O)O

T1: human GIP receptor (human, UniProt P48546 22-466)
T1 sequence (looked up): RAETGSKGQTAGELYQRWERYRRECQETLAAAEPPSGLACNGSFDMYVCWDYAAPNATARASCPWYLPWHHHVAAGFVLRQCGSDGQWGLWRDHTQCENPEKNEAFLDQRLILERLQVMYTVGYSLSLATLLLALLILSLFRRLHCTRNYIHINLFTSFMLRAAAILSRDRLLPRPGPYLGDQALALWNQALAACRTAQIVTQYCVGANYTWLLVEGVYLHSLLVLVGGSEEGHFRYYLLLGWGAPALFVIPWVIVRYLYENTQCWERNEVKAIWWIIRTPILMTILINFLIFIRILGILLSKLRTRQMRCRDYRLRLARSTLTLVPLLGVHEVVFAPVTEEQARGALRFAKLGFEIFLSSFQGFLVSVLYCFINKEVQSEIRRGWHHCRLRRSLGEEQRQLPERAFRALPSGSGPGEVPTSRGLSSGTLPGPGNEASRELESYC

B1: Example 459 (peptide)
peptide: YXEGTXTSDXXIXLDXQAQXXFIKXLIKGGPSSGAPPPS
modifications: Y-Aib-EGT-αMeF(2F)-TSD-4Pal-Aib-I-αMeL-LD-Orn-QAQ-Aib-Orn-FIK((2-[2-(2-Amino-ethoxy)-ethoxy]-acetyl)-(γ-Glu)-CO-(CH2)12-CO2H)-αMeY-LIK((2-[2-(2-Amino-ethoxy)-ethoxy]-acetyl)-(γ-Glu)-CO-(CH2)12-CO2H)GGPSSGAPPPS-NH2
B2: Example 471 (peptide)
peptide: YXEGTXTSDXXIXLDXQAQXXFIKXLIKGGPSSGAPPPS
modifications: Y-Aib-EGT-αMeF(2F)-TSD-4Pal-Aib-I-αMeL-LD-Orn-QAQ-Aib-Orn-FIK((2-[2-(2-Amino-ethoxy)-ethoxy]-acetyl)2--Trx-(γ-Glu)-(10-(4-carboxyphenoxy)decanoyl))-αMeY-LIK(((2-[2-(2-Amino-ethoxy)-ethoxy]-acetyl)2--Trx-(γ-Glu)-(10-(4-carboxyphenoxy)decanoyl))GGPSSGAPPPS-NH2)
B3: Example 456 (peptide)
peptide: YXEGTXTSDXXIXLDXQAQXXFIKXLIKGGPSSGAPPPS
modifications: Y-Aib-EGT-αMeF(2F)-TSD-4Pal-Aib-I-αMeL-LD-Orn-QAQ-Aib-Orn-FIK(Aoc-(2-[2-(2-Amino-ethoxy)-ethoxy]-acetyl)-(γ-Glu)-(10-(4-carboxyphenoxy)decanoyl))-αMeY-LIK(Aoc-(2-[2-(2-Amino-ethoxy)-ethoxy]-acetyl)-(γ-Glu)-(10-(4-carboxyphenoxy)decanoyl))GGPSSGAPPPS-NH2
B4: Example 466 (peptide)
peptide: YXEGTXTSDXXIXLDXQAQXXFIKXLIKGGPSSGAPPPS
modifications: Y-Aib-EGT-αMeF(2F)-TSD-4Pal-Aib-I-αMeL-LD-Orn-QAQ-Aib-Orn-FIK(PEG6-(γ-Glu)-CO-(CH2)12-CO2H)-αMeY-LIK(PEG6-(γ-Glu)-CO-(CH2)12-CO2H)GGPSSGAPPPS-NH2
B5: Example 474 (peptide)
peptide: YXEGTXTSDXXIXLDXQAQXXFIKXLIKGGPSSGAPPPS
modifications: Y-Aib-EGT-αMeF(2F)-TSD-4Pal-Aib-I-αMeL-LD-Orn-QAQ-Aib-Orn-FIK((2-[2-(2-Amino-ethoxy)-ethoxy]-acetyl)2-(γ-Glu)2-CO-(CH2)12-CO2H)-αMeY-LIK((2-[2-(2-Amino-ethoxy)-ethoxy]-acetyl)2-(γ-Glu)2-CO-(CH2)12-CO2H)GGPSSGAPPPS-NH2
B6: Example 452 (peptide)
peptide: YXEGTXTSDXXIXLDXQAQXXFIKXLIKGGPSSGAPPPS
modifications: not fully specified; Y-Aib-EGT-αMeF(2F)-TSD-4Pal-Aib-I-αMeL-LD-Orn-QAQ-Aib-Orn-FIK(Aoc-(2-[2-(2-Amino-ethoxy)-ethoxy]-acetyl)-(γ-Glu)-CO-(CH2)12-CO2)-αMeY-LIK(Aoc-(2-[2-(2-Amino-ethoxy)-ethoxy]-acetyl)-(γ-Glu)-CO-(CH2)12-CO2)GGPSSGAPPPS-NH2
B7: Example 455 (peptide)
peptide: YXEGTXTSDXXIXLDXQAQXXFIKXLIKGGPSSGAPPPS
modifications: Y-Aib-EGT-αMeF(2F)-TSD-4Pal-Aib-I-αMeL-LD-Orn-QAQ-Aib-Orn-FIK(Ahx-(2-[2-(2-Amino-ethoxy)-ethoxy]-acetyl)-(γ-Glu)-(10-(4-carboxyphenoxy)decanoyl))-αMeY-LIK(Ahx-(2-[2-(2-Amino-ethoxy)-ethoxy]-acetyl)-(γ-Glu)-(10-(4-carboxyphenoxy)decanoyl))GGPSSGAPPPS-NH2
B8: Example 448 (peptide)
peptide: Y[Aib]EGT[αMePhe(2-F)]TSDV[Aib]I[αMeL]LD[Orn]QAQ[Aib][Orn]FIK([AEEA-AEEA-γGlu-C14 diacid])[αMeY]LIK([AEEA-AEEA-γGlu-C14 diacid])GGPSSGAPPPS-NH2
modifications: N-terminus assumed
SMILES: CC[C@H](C)[C@H](NC(=O)[C@H](CC(C)C)NC(=O)[C@](C)(Cc1ccc(O)cc1)NC(=O)[C@H](CCCCNC(=O)COCCOCCNC(=O)COCCOCCNC(=O)CC[C@H](NC(=O)CCCCCCCCCCCCC(=O)O)C(=O)O)NC(=O)[C@@H](NC(=O)[C@H](Cc1ccccc1)NC(=O)[C@H](CCCN)NC(=O)C(C)(C)NC(=O)[C@H](CCC(N)=O)NC(=O)[C@H](C)NC(=O)[C@H](CCC(N)=O)NC(=O)[C@H](CCCN)NC(=O)[C@H](CC(=O)O)NC(=O)[C@H](CC(C)C)NC(=O)[C@](C)(CC(C)C)NC(=O)[C@@H](NC(=O)C(C)(C)NC(=O)[C@@H](NC(=O)[C@H](CC(=O)O)NC(=O)[C@H](CO)NC(=O)[C@@H](NC(=O)[C@](C)(Cc1ccccc1F)NC(=O)[C@@H](NC(=O)CNC(=O)[C@H](CCC(=O)O)NC(=O)C(C)(C)NC(=O)[C@@H](N)Cc1ccc(O)cc1)[C@@H](C)O)[C@@H](C)O)C(C)C)[C@@H](C)CC)[C@@H](C)CC)C(=O)N[C@@H](CCCCNC(=O)COCCOCCNC(=O)COCCOCCNC(=O)CC[C@H](NC(=O)CCCCCCCCCCCCC(=O)O)C(=O)O)C(=O)NCC(=O)NCC(=O)N1CCC[C@H]1C(=O)N[C@@H](CO)C(=O)N[C@@H](CO)C(=O)NCC(=O)N[C@@H](C)C(=O)N1CCC[C@H]1C(=O)N1CCC[C@H]1C(=O)N1CCC[C@H]1C(=O)N[C@@H](CO)C(N)=O

Legend:
Test in all cases: cell-based or functional assay
human glucagon receptor = human glucagon receptor (human, UniProt P47871 26-477)
human glucagon receptor, sequence (P47871 26-477): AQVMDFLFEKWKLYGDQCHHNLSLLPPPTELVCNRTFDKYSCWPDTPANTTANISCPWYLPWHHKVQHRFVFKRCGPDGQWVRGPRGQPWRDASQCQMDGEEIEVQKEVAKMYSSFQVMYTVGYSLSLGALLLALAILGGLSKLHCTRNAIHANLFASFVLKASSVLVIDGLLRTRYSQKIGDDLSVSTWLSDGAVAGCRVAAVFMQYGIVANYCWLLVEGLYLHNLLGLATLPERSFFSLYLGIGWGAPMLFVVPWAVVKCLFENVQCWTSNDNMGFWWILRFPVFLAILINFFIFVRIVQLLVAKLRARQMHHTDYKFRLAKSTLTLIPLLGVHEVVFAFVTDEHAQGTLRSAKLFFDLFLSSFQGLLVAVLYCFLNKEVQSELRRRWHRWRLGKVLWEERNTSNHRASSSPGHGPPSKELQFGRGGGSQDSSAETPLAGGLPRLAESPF

human GLP-1 receptor = human GLP-1 receptor (human, UniProt P43220 24-463)
human GIP receptor = target: T1, human GIP receptor

| Binder | cAMP EC50 (1.0% HSA) (human glucagon receptor) | cAMP EC50 (1.0% HSA) (human GLP-1 receptor) | cAMP EC50 (1.0% HSA) (human GIP receptor) | cAMP Emax (1.0% HSA) (human GLP-1 receptor) |
| --- | --- | --- | --- | --- |
| B1 | > 9950 nM | 4.87 nM | 0.323 nM |  |
| B2 | > 9950 nM | 4.36 nM | 0.568 nM |  |
| B3 | > 9950 nM | 14.7 nM | 0.878 nM |  |
| B4 | > 10100 nM | 3.32 nM | 0.314 nM |  |
| B5 | > 9950 nM | 1.1 nM | 0.156 nM |  |
| B6 | > 9950 nM | 16.8 nM | 1.21 nM |  |
| B7 | > 9950 nM | 5.24 nM | 0.362 nM |  |
| B8 | > 9950 nM | 7.91 nM | 1.41 nM | 99.5% |
